The text below walks through data of publication PMC7672080.

Experiment [1] addresses mCherry-tagged neuroligin-1 (UniProt Q99K10).
Experiment [2] shares this target. This is another data set of the same source.

UniProt Q99K10, sequence (Q99K10 46-843): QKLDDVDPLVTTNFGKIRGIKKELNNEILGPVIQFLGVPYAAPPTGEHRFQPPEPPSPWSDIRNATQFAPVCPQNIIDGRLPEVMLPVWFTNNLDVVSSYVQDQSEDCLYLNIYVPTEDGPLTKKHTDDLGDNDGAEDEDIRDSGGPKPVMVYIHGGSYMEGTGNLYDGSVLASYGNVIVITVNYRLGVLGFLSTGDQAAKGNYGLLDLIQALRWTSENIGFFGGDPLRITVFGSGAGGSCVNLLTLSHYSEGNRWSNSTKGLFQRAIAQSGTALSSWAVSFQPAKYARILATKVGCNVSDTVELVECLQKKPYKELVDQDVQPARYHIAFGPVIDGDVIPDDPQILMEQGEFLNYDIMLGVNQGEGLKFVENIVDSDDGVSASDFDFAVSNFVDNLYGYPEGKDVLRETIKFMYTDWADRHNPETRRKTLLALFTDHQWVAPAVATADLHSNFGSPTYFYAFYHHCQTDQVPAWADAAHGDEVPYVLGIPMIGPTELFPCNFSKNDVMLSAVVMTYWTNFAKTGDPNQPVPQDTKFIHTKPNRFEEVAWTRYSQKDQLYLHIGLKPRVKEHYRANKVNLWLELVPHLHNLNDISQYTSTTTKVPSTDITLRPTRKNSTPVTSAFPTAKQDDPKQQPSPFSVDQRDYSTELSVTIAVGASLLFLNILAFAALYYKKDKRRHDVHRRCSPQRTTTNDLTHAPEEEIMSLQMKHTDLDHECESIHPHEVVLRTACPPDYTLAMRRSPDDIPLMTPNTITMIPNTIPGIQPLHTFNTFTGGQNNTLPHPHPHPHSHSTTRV

Consider “GFP-tagged neurexin-1β (from UniProt Q63373 47-468) (receptor)”, for which, in experiment [1], the diffusion coefficient of single GFP-Nrx1β molecules inside the contact with a cell expressing Nlg1-mCherry (uPAINT single particle tracking at 50 Hz; Dout = 0.3 µm^2/s outside the contact) turned out to be 0.04 µm^2/s. This substance also displayed an enrichment of GFP-Nrx1β at cell–cell contacts between co-cultured COS-7 cells expressing GFP-Nrx1β and cells expressing Nlg1-mCherry (fluorescence microscopy) in experiment [2] of 3.9.
